The supplement of paper PMC11246515
± gives the standard deviation of the averaged measurements.

Assay: total protein half-life in vivo (active degradation + dilution); higher = more stable protein
[1] = E. coli NCM3722 delta-clpP delta-lon delta-hslV, growth: N-lim chemostat, doubling time 6 h
[2] = E. coli NCM3722 delta-clpP, growth: N-lim chemostat, doubling time 6 h
[3] = E. coli NCM3722 delta-hslV, growth: N-lim chemostat, doubling time 6 h
[4] = E. coli NCM3722 delta-lon, growth: N-lim chemostat, doubling time 6 h
[5] = E. coli NCM3722 delta-smpB, growth: N-lim chemostat, doubling time 6 h
[6] = wild type E. coli NCM3722, growth: C-lim chemostat, doubling time 3 h
[7] = wild type E. coli NCM3722, growth: C-lim chemostat, doubling time 6 h
[8] = wild type E. coli NCM3722, growth: C-lim chemostat, doubling time 12 h
[9] = wild type E. coli NCM3722, growth: N-lim chemostat, doubling time 6 h
[10] = wild type E. coli NCM3722, growth: N-lim chemostat, doubling time 12 h
[11] = wild type E. coli NCM3722, growth: P-lim chemostat, doubling time 6 h
[12] = wild type E. coli NCM3722, growth: P-lim chemostat, doubling time 12 h

Sequence	total protein half-life in vivo [1] [h]	total protein half-life in vivo [2] [h]	total protein half-life in vivo [3] [h]	total protein half-life in vivo [4] [h]	total protein half-life in vivo [5] [h]	total protein half-life in vivo [6] [h]	total protein half-life in vivo [7] [h]	total protein half-life in vivo [8] [h]	total protein half-life in vivo [9] [h]	total protein half-life in vivo [10] [h]	total protein half-life in vivo [11] [h]	total protein half-life in vivo [12] [h]
MKLVGSYTSPFVRKLSILLLEKGITFEFINELPYNADNGVAQFNPLGKVPVLVTEEGECWFDSPIIAEYIELMNVAPAMLPRDPLESLRVRKIEALADGIMDAGLVSVREQARPAAQQSEDELLRQREKINRSLDVLEGYLVDGTLKTDTVNLATIAIACAVGYLNFRRVAPGWCVDRPHLVKLVENLFSRESFARTEPPKA [P0ACA1]	5.35 ± 1.8	3.78 ± 0.28	4.118 ± 0.04	4.31 ± 0.48	4.22 ± 0.18	3.22 ± 0.13	5.52 ± 0.17	10.7 ± 0.87	4.16 ± 0.18	6.719 ± 0.0095	5.51 ± 0.23	12 ± 1
MKMIEVVAAIIERDGKILLAQRPAQSDQAGLWEFAGGKVEPDESQRQALVRELREELGIEATVGEYVASHQREVSGRIIHLHAWHVPDFHGTLQAHEHQALVWCSPEEALQYPLAPADIPLLEAFMALRAARPAD	4.73	4.63	–	5.61	4.07	3.25	4.61 ± 0.59	8.63	3.82	6.31 ± 0.54	4.59	8.52 ± 0.99
MKMNKSLIVLCLSAGLLASAPGISLADVNYVPQNTSDAPAIPSAALQQLTWTPVDQSKTQTTQLATGGQQLNVPGISGPVAAYSVPANIGELTLTLTSEVNKQTSVFAPNVLILDQNMTPSAFFPSSYFTYQEPGVMSADRLEGVMRLTPALGQQKLYVLVFTTEKDLQQTTQLLDPAKAYAKGVGNSIPDIPDPVARHTTDGLLKLKVKTNSSSSVLVGPLFGSSAPAPVTVGNTAAPAVAAPAPAPVKKSEPMLNDTESYFNTAIKNAVAKGDVDKALKLLDEAERLGSTSARSTFISSVKGKG	5.04 ± 2.7	3.08	6.28	3.75 ± 0.98	2.82 ± 0.1	2.84 ± 0.031	4.94 ± 0.13	10.5 ± 1.6	3.93 ± 0.67	7.51 ± 0.25	4.18	6.149 ± 0.0079
MKMVSRITAIGLAGVAICYLGLSGYVWYHDNKRSKQADVQASAVSENNKVLGFLREKGCDYCHTPSAELPAYYYIPGAKQLMDYDIKLGYKSFNLEAVRAALLADKPVSQSDLNKIEWVMQYETMPPTRYTALHWAGKVSDEERAEILAWIAKQRAEYYASNDTAPEHRNEPVQPIPQKLPTDAQKVALGFALYHDPRLSADSTISCAHCHALNAGGVDGRKTSIGVGGAVGPINAPTVFNSVFNVEQFWDGRAATLQDQAGGPPLNPIEMASKSWDEIIAKLEKDPQLKTQFLEVYPQGFSGENITDAIAEFEKTLITPDSPFDKWLRGDENALTAQQKKGYQLFKDNKCATCHGGIILGGRSFEPLGLKKDFNFGEITAADIGRMNVTKEERDKLRQKVPGLRNVALTAPYFHRGDVPTLDGAVKLMLRYQVGKELPQEDVDDIVAFLHSLNGVYTPYMQDKQ	> 8	4.69	5.53	–	4.76	3.28 ± 0.2	5.27 ± 1	12.2	5.16	10.8	5.31	11 ± 1.4
MKNFEVLQPLQNSLSGLPLWVSERILQQINQLTHYEPVIGIMGKTGAGKSSLCNALFAGEVSPVSDVAACTRDPLRFRLQIGEHFMTIVDLPGVGESGVRDTEYAALYREQLPRLDLILWLIKADDRALATDEHFYRQVIGEAYRHKMLFVISQSDKAEPTSGGNILSTEQKQNISRKICLLHELFQPVHPVCAVSVRLQWGLRVMAERMIKCLPREASSPVVALLQHPFRTTVAREQARDDFGETVGAILDTVSTFPLIPAPVRTIIQAVRSSVVSVARAVWDFFF	–	–	3.97	–	–	–	–	10.6	–	–	–	–
MKNIKFSLAWQILFAMVLGILLGSYLHYHSDSRDWLVVNLLSPAGDIFIHLIKMIVVPIVISTLVVGIAGVGDAKQLGRIGAKTIIYFEVITTVAIILGITLANVFQPGAGVDMSQLATVDISKYQSTTEAVQSSSHGIMGTILSLVPTNIVASMAKGEMLPIIFFSVLFGLGLSSLPATHREPLVTVFRSISETMFKVTHMVMRYAPVGVFALIAVTVANFGFSSLWPLAKLVLLVHFAILFFALVVLGIVARLCGLSVWILIRILKDELILAYSTASSESVLPRIIEKMEAYGAPVSITSFVVPTGYSFNLDGSTLYQSIAAIFIAQLYGIDLSIWQEIILVLTLMVTSKGIAGVPGVSFVVLLATLGSVGIPLEGLAFIAGVDRILDMARTALNVVGNALAVLVIAKWEHKFDRKKALAYEREVLGKFDKTADQ	–	2.63	–	–	–	2.87	4.95	> 16	–	–	–	6.24
MKNIVPDYRLDMVGEPCPYPAVATLEAMPQLKKGEILEVVSDCPQSINNIPLDARNHGYTVLDIQQDGPTIRYLIQK [P0AA31]	–	–	–	–	–	3.04 ± 0.69	5.2 ± 0.98	6.03	–	–	–	–
MKNLIAELLFKLAQKEEESKELCAQVEALEIIVTAMLRNMAQNDQQRLIDQVEGALYEVKPDASIPDDDTELLRDYVKKLLKHPRQ [P0AAN9]	–	3.74 ± 0.97	4.38 ± 0.94	6.09 ± 1.4	4.195 ± 0.0044	3.54 ± 0.59	4.96 ± 0.47	7.25 ± 1.9	3.43 ± 0.67	8.18 ± 5.6	4.02 ± 1.8	10.1 ± 0.93
MKNQAHPIIVVKRRKAKSHGAAHGSWKIAYADFMTAMMAFFLVMWLISISSPKELIQIAEYFRTPLATAVTGGDRISNSESPIPGGGDDYTQSQGEVNKQPNIEELKKRMEQSRLRKLRGDLDQLIESDPKLRALRPHLKIDLVQEGLRIQIIDSQNRPMFRTGSADVEPYMRDILRAIAPVLNGIPNRISLSGHTDDFPYASGEKGYSNWELSADRANASRRELMVGGLDSGKVLRVVGMAATMRLSDRGPDDAVNRRISLLVLNKQAEQAILHENAESQNEPVSALEKPEVAPQVSVPTMPSAEPR [P0AF06]	–	–	–	–	–	0.683 ± 0.017	1.21	1.33	–	–	–	–
